The results in this text go back to the supplement of paper PMC7877785.

± gives the uncertainty stated by the source.

The series can be described thus: self-splicing fitness, log relative to wild type (ln ratio); higher = more splicing; Tetrahymena group I intron in knt gene, E. coli kanamycin selection, DiMSum; sequences stand for … in CUCUCU…GGAGGGAAAAGUUAUCAGGCAUGCACCUGGUAGCUAGUCUUUAAACCAAUAGAUUGCAUCGGUUUAAAAGGCAAGACCGUCAAAUUGCGGGAAAGGGGUCAACAGCCGUUCAGUACCAAGUCUCAGGGGAAACUUUGAGAUGGCCUUGCAAAGGGUAUGGUAAUAAGCUGACGGACAUGGUCCUAACCACGCAGCCAAGUCCUAAGUCAACAGAUCUUCUGUUGAUAUGGAUGCAGUUCACAGACUAAAUGUCGGUCGGGGAAGAUGUAUUCUUCUCAUAAGAUAUAGUCGGACCUCUCCUUAAUGGGAGCUAGCGGAUGAAGUGAUGCAACACUGGAGCCGCUGGGAACUAAUUUGUAUGCGAAAGUAUAUUGAUUAGUUUUGGAGUACUCGUGGUCG
Summed up:
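A randomised library covering all eight P1ex-region intron nucleotides was built with the intron in the knt kanamycin-resistance gene on pET-22b(+) and held in E. coli BL21(DE3). Cells were grown overnight at 37°C or 30°C on LB agar, with or without 25 μg/mL kanamycin, plus 100 μg/mL carbenicillin, 50 μM IPTG and 0.2% rhamnose, and pooled colonies were amplicon-sequenced on an Illumina HiSeq 2500. DiMSum fitness is the error-weighted combination of wild-type-normalised replicate fold changes, kanamycin versus none.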

Take GCCAAGCAAUAUUACGGCGU: the “self-splicing fitness (ln)” value is, setting by setting: (30 °C) -0.74 ± 0.067; (37 °C) -0.453 ± 0.1.
Take GAGAAGCAAUAUUACGCGUG: the “self-splicing fitness (ln)” value (30 °C) was -0.423 ± 0.062 and the “self-splicing fitness (ln)” value (37 °C) is -0.803 ± 0.09.
The matching figures for CAGAAGCAAUAUUACGCACU: -2.13 ± 0.14 and -1.36 ± 0.14.
Regarding CGAGAGCAAUAUUACGGACG, the “self-splicing fitness (ln)” value (30 °C) is -1.25 ± 0.23 and the “self-splicing fitness (ln)” value (37 °C) is -0.913 ± 0.42.
The matching figures for CAAAAGCAAUAUUACGAUUC: -2.41 ± 0.11 and -0.98 ± 0.089.
Taken in the same sequence, the figures for AUGAAGCAAUAUUACGAGCA were -0.665 ± 0.084 and -0.299 ± 0.083.
The matching figures for GAAAAGCAAUAUUACGAUAG: -3.28 ± 0.15 and -1.69 ± 0.15.
As for CGCUAGCAAUAUUACGGGCA, the “self-splicing fitness (ln)” value is, setting by setting: (30 °C) -0.187 ± 0.07; (37 °C) -0.269 ± 0.079.
Taken in the same sequence, the figures for CACUAGCAAUAUUACGGCCU were -2.77 ± 0.2 and -1.94 ± 0.18.
Taken in the same sequence, the figures for ACUAAGCAAUAUUACGCUGG were -2.82 ± 0.19 and -2.93 ± 0.31.
On to UCGGAGCAAUAUUACGUGGU, for which the “self-splicing fitness (ln)” value was -3.59 ± 0.39 (30 °C) and -1.72 ± 0.34 (37 °C).
The matching figures for GCGAAGCAAUAUUACGGUUA: 0.0459 ± 0.22 and -0.871 ± 0.19.
With ACAAAGCAAUAUUACGAUUC, the “self-splicing fitness (ln)” value is, setting by setting: (30 °C) -1.92 ± 0.085; (37 °C) -0.67 ± 0.1.
The matching figures for GUCCAGCAAUAUUACGACGG: -3.49 ± 0.2 and -2.66 ± 0.23.
For AAUGAGCAAUAUUACGGCUG, the “self-splicing fitness (ln)” value is -1.52 ± 0.096 (30 °C) and -1.47 ± 0.16 (37 °C).
Turning to GGGCAGCAAUAUUACGGACA, the “self-splicing fitness (ln)” value is -1.97 ± 0.38 (30 °C) and -0.246 ± 0.39 (37 °C).
Regarding CGAGAGCAAUAUUACGGCGC, the “self-splicing fitness (ln)” value is, setting by setting: (30 °C) -2.76 ± 0.21; (37 °C) -1.62 ± 0.21.
Taken in the same sequence, the figures for GACCAGCAAUAUUACGUAGA were 0.284 ± 0.056 and 0.219 ± 0.074.
For ACCAAGCAAUAUUACGCGCU, the “self-splicing fitness (ln)” value reads like this: (30 °C) -0.723 ± 0.07; (37 °C) 0.206 ± 0.089.
The matching figures for UUGAAGCAAUAUUACGGGUA: -0.282 ± 0.065 and -0.527 ± 0.081.
The matching figures for CGUCAGCAAUAUUACGGGAG: -2.36 ± 0.098 and -0.946 ± 0.11.
For the sequence CUUAAGCAAUAUUACGCAAC, the “self-splicing fitness (ln)” value (30 °C) is -3.55 ± 0.27 and the “self-splicing fitness (ln)” value (37 °C) was -2.37 ± 0.26.
In the case of CAUAAGCAAUAUUACGCCUA, the “self-splicing fitness (ln)” value is -2.46 ± 0.35 (30 °C) and -0.984 ± 0.21 (37 °C).
As to UUGAAGCAAUAUUACGUGGU, the “self-splicing fitness (ln)” value runs as follows: (30 °C) -3.78 ± 0.25; (37 °C) -2.94 ± 0.34.
Taken in the same sequence, the figures for ACAGAGCAAUAUUACGCCGC were -3.09 ± 0.48 and -1.07 ± 0.36.
The matching figures for UGUAAGCAAUAUUACGGACC: -1.18 ± 0.18 and -0.408 ± 0.18.
As to CUAUAGCAAUAUUACGACGC, the “self-splicing fitness (ln)” value is, setting by setting: (30 °C) -3.02 ± 0.36; (37 °C) -2.14 ± 0.38.
Consider GAGAAGCAAUAUUACGGAAA, for which the “self-splicing fitness (ln)” value is -2.35 ± 0.45 (30 °C) and -1.92 ± 0.35 (37 °C).
As to UUUAAGCAAUAUUACGAUAG, the “self-splicing fitness (ln)” value reads like this: (30 °C) -0.412 ± 0.096; (37 °C) -0.23 ± 0.097.
The matching figures for AACUAGCAAUAUUACGAGUG: -0.165 ± 0.059 and -0.29 ± 0.074.
Turning to GUCGAGCAAUAUUACGCAUG, the “self-splicing fitness (ln)” value is, setting by setting: (30 °C) -3.47 ± 0.25; (37 °C) -2.43 ± 0.22.
For the sequence UUUGAGCAAUAUUACGUUCA, under “37 °C”, the “self-splicing fitness (ln)” value is -2.38 ± 0.36.
In the case of CGCUAGCAAUAUUACGUGCA, the “self-splicing fitness (ln)” value was -0.672 ± 0.095 (30 °C) and 0.116 ± 0.11 (37 °C).
Taken in the same sequence, the figures for GUCCAGCAAUAUUACGUUGG were -3.27 ± 0.15 and -2.13 ± 0.17.
In the case of UAACAGCAAUAUUACGCACA, the “self-splicing fitness (ln)” value is -0.339 ± 0.069 (30 °C) and 0.114 ± 0.099 (37 °C).
Taken in the same sequence, the figures for AAGAAGCAAUAUUACGUAUC were -2.31 ± 0.16 and -0.892 ± 0.18.
Taken in the same sequence, the figures for AAGCAGCAAUAUUACGCUUA were -1.9 ± 0.15 and -1.24 ± 0.14.
